According to patent publication US20220340657A1 (L AND L BIO CO LTD NINGBO CHINA, published 2022):
Where a chain is given by its changes, count along the chain named. Each block holds one binder with its values, some of them ahead of it.

Assays:
hLAG-3-D12-his = biological target: T1, hLAG-3-D12-his (human, UniProt P18627 23-239); assay: ELISA
T1 construct: range 23-239
T1 sequence: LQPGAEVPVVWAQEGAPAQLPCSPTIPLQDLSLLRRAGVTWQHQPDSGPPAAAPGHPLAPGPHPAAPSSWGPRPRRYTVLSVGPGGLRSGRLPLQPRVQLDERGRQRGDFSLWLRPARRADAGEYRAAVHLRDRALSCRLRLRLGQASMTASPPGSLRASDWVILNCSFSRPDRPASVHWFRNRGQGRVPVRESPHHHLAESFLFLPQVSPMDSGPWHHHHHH
Description: (§1) After discarding the liquid, a blocking solution of 5% skimmed milk (Bright skimmed milk powder) diluted with PBS was added at 230 μl per well, followed by incubating at 37° C. for 3 hours or 4° C. overnight (16-18 hours) for blocking. Subsequently, the blocking solution was discarded, and the micropiate was washed 5 times with PBST buffer (pH 7.4 PBS containing 0.05% tweeen-20). Then 50 μl/well of the supernatant (containing the antibody to be tested) or a starting concentration of 10 μg/ml of the antibody to be tested, which was diluted 5 times in gradient, was added, followed by incubating the mixture for 1 hour at 37° C. […] After washing the microplate 5 times with PBST, 50 μl/well TIMB chromogenic substrate (KPL, Cat. No.: 52-00-03) was added, and then incubated for […] at room temperature. Finally, 50 μl/well of 1 M H₂SO₄ was added to stop the reaction. The absorbance value at 450 nm was read by […] GO microplate reader (ThermoFisher, Cat. No.: 51119200). The clones with high affinity were selected according to the OD value or the EC₅₀ value was calculated (for antibodies with known concentrations).

human LAG-3-his [1] = biological target: T2, human LAG-3-his (human, UniProt P18627 23-422); assay: ELISA on hLAG-3
T2 construct: range 23-422; also called hLAG-3-his; hLAG-3
T2 sequence: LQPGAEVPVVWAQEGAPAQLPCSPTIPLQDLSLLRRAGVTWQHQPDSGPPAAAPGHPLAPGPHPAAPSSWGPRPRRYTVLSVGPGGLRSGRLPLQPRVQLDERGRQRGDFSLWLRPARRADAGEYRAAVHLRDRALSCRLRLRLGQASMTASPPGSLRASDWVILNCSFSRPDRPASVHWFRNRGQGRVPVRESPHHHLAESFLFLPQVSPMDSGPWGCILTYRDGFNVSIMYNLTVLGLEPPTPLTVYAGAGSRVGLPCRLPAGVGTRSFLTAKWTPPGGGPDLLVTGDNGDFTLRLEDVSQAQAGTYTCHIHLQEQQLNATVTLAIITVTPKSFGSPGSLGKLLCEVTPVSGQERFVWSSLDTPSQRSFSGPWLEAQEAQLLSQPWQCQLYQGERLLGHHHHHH
Description: as §1

bio-LAG3-mFc = biological target: T3, bio-LAG3-mFc (human, UniProt P18627 23-450, biotin-labelled); assay: blocking ELISA, LAG-3 on Daudi cells
T3 construct: also called hLAG-3
T3 sequence (looked up): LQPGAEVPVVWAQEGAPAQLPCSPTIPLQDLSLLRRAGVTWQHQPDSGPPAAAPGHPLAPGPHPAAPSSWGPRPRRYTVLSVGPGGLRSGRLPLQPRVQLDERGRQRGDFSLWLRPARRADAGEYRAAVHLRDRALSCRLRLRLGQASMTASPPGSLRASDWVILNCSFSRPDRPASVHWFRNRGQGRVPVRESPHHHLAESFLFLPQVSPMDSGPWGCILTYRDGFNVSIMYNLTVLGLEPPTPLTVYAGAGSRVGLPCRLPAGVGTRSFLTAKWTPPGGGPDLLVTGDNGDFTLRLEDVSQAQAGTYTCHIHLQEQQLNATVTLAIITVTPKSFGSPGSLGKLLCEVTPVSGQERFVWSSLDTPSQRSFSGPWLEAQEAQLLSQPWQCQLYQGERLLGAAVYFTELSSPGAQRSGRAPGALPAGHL

human LAG-3-his [2] = biological target: T2, human LAG-3-his; assay: Biacore T200, antibody captured on Protein A, LAG-3-his in solution
Description: First, Protein A (Thermo Pierce, Cat. No.: 21181) was coupled to the biosensor chip CMS (GE, Cat. No.: BR-4005-30) using pH 7.4 running buffer HBS-EP+ (10 mM HEPES, 150 mM NaCl, 3 mM EDTA, and 0.05% P20). The chip was activated with a freshly prepared 50 mM NHS (N-hydroxysuccinimide) and 200 mM EDC (1-ethyl-3-(3-dimethylaminopropyl) carbodiimide hydrochloride) followed by injection of 10 μg/ml Protein A prepared with 10 mM NaAc (pH4.0). […] The flow rate was […], binding time was 180 s, and dissociation time was 300 s, After the experiment, the chip was washed for 30 s with 10 mM Glycine-HCl (pH 1.5) at a flow rate of 30 μl/min. The experimental data were fitted with the 1:1 Langmuir model using the software of Biacore T200 evaluation version 3.0 (GE), and the value of affinity KD was obtained.

EC50 (hLAG-3-D12-his): 1.71 nM
EC50 (human LAG-3-his [1]): 0.119 nM
IC50 (bio-LAG3-mFc): 2.7 nM
Kd (human LAG-3-his [2]): 0.168 nM
B1: humanized anti-human LAG-3 antibody Ab2317 (antibody, human IgG4 S228P, kappa, V domains shown)
VH: QVQLVQSGAEVKKPGASVKVSCKASGYTFTDYEMHWVKQAPGQGLEWIGGIDPETEGIAYNQKFRGRATLTADKSTSTAYMELRSLRSDDTAVYYCTNSNYYGGREAWFAYWGQGTLVTVSS
VL: DIQMTQSPSSLSASVGDRVTITCRASQDIGSSLNWYQQKPGKAPKRLIYATSSLDSGVPSRFSGSRSGSDFTLTISSLQPEDFATYYCLQYVTSPLTFGGGTKVEIKR
notes: LG2317 / LG2343, human kappa / hIgG4

EC50 (hLAG-3-D12-his): 1.51 nM
EC50 (human LAG-3-his [1]): 0.142 nM
IC50 (bio-LAG3-mFc): 3.6 nM
Kd (human LAG-3-his [2]): 0.19 nM
B2: humanized antibody Ab2325 (antibody, human IgG4 S228P, kappa, V domains shown)
VH: B1 VH with I48M, L70M, A72T, K74T, T97A
VL: B1 VL
notes: LG2317 / LG2348, human kappa / hIgG4
